The results in this text go back to publication PMC3241647 (Nucleic Acids Research, 2011).

This data set concerns the molecule itself. The experiment in a line: SEC.

B1: Bacillus subtilis Zur H90A (natural protein)
chain: not shown
B1: the binding result is “binds”.

B2: Bacillus subtilis Zur C84S (natural protein)
chain: not shown
As to B2, the “stoichiometry N” value stood at 2.

B3: Bacillus subtilis Zur H89A (natural protein)
chain: not shown
On to B3, for which the binding result is reported as “binds”.
